Assay results from PMC2843198 (The Journal of Biological Chemistry, 2010).

Target: the molecule itself
Experiment: SEC

B1: TAP-tagged Fun30 (Function unknown now 30) (enzyme, S. cerevisiae, UniProt P31380 1-1131, looked up)
chain: MSGSHSNDEDDVVQVPETSSPTKVASSSPLKPTSPTVPDASVASLRSRFTFKPSDPSEGAHTSKPLPSGSPEVALVNLAREFPDFSQTLVQAVFKSNSFNLQSARERLTRLRQQRQNWTWNKNASPKKSETPPPVKKSLPLANTGRLSSIHGNINNKSSKITVAKQKTSIFDRYSNVINQKQYTFELPTNLNIDSEALSKLPVNYNKKRRLVRADQHPIGKSYESSATQLGSAREKLLANRKYGRHANDNDEEEEESMMTDDDDASGDDYTESTPQINLDEQVLQFINDSDIVDLSDLSDTTMHKAQLIASHRPYSSLNAFVNTNFNDKDTEENASNKRKRRAAASANESERLLDKITQSIRGYNAIESVIKKCSSYGDLVTSQMKKWGVQVEGDNSELDLMNLGEDDDDDNDDGNNDNNNSNNNNTAGADATSKEKEDTKAVVEGFDETSAEPTPAPAPAPVERETKRIRNTTKPKVVEDEDDDVDLEAIDDELPQSEHEDDDYEEEDEDYNDEEEDVEYDDGDDDDDDDDEFVATRKNTHVISTTSRNGRKPIVKFFKGKPRLLSPEISLKDYQQTGINWLNLLYQNKMSCILADDMGLGKTCQVISFFAYLKQINEPGPHLVVVPSSTLENWLREFQKFAPALKIEPYYGSLQEREELRDILERNAGKYDVIVTTYNLAAGNKYDVSFLKNRNFNVVVYDEGHMLKNSTSERFAKLMKIRANFRLLLTGTPLQNNLKELMSLLEFIMPNLFISKKESFDAIFKQRAKTTDDNKNHNPLLAQEAITRAKTMMKPFILRRRKDQVLKHLPPKHTHIQYCELNAIQKKIYDKEIQIVLEHKRMIKDGELPKDAKEKSKLQSSSSKNLIMALRKASLHPLLFRNIYNDKIITKMSDAILDEPAYAENGNKEYIKEDMSYMTDFELHKLCCNFPNTLSKYQLHNDEWMQSGKIDALKKLLKTIIVDKQEKVLIFSLFTQVLDILEMVLSTLDYKFLRLDGSTQVNDRQLLIDKFYEDKDIPIFILSTKAGGFGINLVCANNVIIFDQSFNPHDDRQAADRAHRVGQTKEVNITTLITKDSIEEKIHQLAKNKLALDSYISEDKKSQDVLESKVSDMLEDIIYDENSKPKGTKE
- stoichiometry N: 2
